Measured values taken from patent US20180171024A1.
Where two headings read alike, the source gives them in different places.

Experiments:
[1] = biological target: HLA-A2/TyrD-S17 on T2 cells (human); experiment: flow cytometry, T2 cells loaded with TyrD-S17 [..], 10 µg/ml
[2] = biological target: HLA-A2 on cells (tumor cell lines, normal primary cells, PBMCs) (human); experiment: flow cytometry, A375 melanoma cells, 10 µg/ml
[3] = biological target: HLA-A2 on cells (tumor cell lines, normal primary cells, PBMCs) (human); experiment: flow cytometry, Malme-3M melanoma cells, 10 µg/ml
[4] = biological target: HLA-A2/TyrD-S16 on T2 cells (human); experiment: flow cytometry, T2 cells loaded with TyrD S16 [..], 10 µg/ml
[5] = biological target: HLA-A2 on other WT1 negative HLA-A2+ cells (other than 501, A498 and SKMEL; members not named); experiment: flow cytometry on U266 cells (WT1 mRNA -)
[6] = biological target: HLA-A2 on cells (tumor cell lines, normal primary cells, PBMCs) (human); experiment: flow cytometry, renal epithelial cells #4100-2, 10 µg/ml
[7] = biological target: HLA-A2/TyrD-S14 on T2 cells (human); experiment: flow cytometry, T2 cells loaded with TyrD S14 [..], 10 µg/ml
[8] = biological target: HLA-A2 on cells (tumor cell lines, normal primary cells, PBMCs) (human); experiment: flow cytometry, H522 cells, 10 µg/ml
[9] = biological target: HLA-A2/WT1 126-134 complex on T2 cells (human); experiment: flow cytometry, T2 cells loaded with WT1 peptide 1x10e-4M
[10] = biological target: HLA-A2/WT1 126-134 complex on T2 cells (human); experiment: flow cytometry, T2 cells loaded with WT1 peptide 1x10e-5M
[11] = biological target: HLA-A2 on other WT1 negative HLA-A2+ cells (other than 501, A498 and SKMEL; members not named); experiment: flow cytometry on IM-9 cells (WT1 mRNA -)
[12] = biological target: HLA-A2 on cells (tumor cell lines, normal primary cells, PBMCs) (human); experiment: flow cytometry, 501A cells
[13] = biological target: HLA-A2 on cells (tumor cell lines, normal primary cells, PBMCs) (human); experiment: flow cytometry, 501A melanoma cells, 10 µg/ml
[14] = biological target: HLA-A2/WT1 126-134 complex on T2 cells (human); experiment: flow cytometry, T2 cells loaded with WT1 1x10e-4M in DMSO
[15] = biological target: HLA-A2/TyrD-S20 on T2 cells (human); experiment: flow cytometry, T2 cells loaded with TyrD-S20 [..], 10 µg/ml
[16] = biological target: HLA-A2 on unloaded T2 cells (human); experiment: flow cytometry, unloaded T2 cells, 10 µg/ml
[17] = biological target: HLA-A2 on unloaded T2 cells (human); experiment: flow cytometry, unloaded T2 cells, 10 µg/ml; remark: listed apart in the source
[18] = biological target: HLA-A2 on cells (tumor cell lines, normal primary cells, PBMCs) (human); experiment: flow cytometry, Fib cells
[19] = biological target: HLA-A2/MAGE-A4 230-239 complex on cells (human); experiment: flow cytometry, T2 cells loaded with MAGE-A4 [..], 10 µg/ml
[20] = biological target: HLA-A2 on cells (tumor cell lines, normal primary cells, PBMCs) (human); experiment: flow cytometry, astrocytes 1800, 10 µg/ml
[21] = biological target: HLA-A2 on cells (tumor cell lines, normal primary cells, PBMCs) (human); experiment: flow cytometry, WM-266-4 melanoma cells
[22] = biological target: HLA-A2/154 on T2 cells (human); experiment: flow cytometry, T2 cells loaded with 154 peptide
[23] = biological target: HLA-A2 on cells (tumor cell lines, normal primary cells, PBMCs) (human); experiment: flow cytometry, WM-115 melanoma cells, 10 µg/ml
[24] = biological target: HLA-A2 on cells (tumor cell lines, normal primary cells, PBMCs) (human); experiment: flow cytometry, H1703 cells, 10 µg/ml
[25] = biological target: HLA-A2/SSX-2 on T2 cells (human); experiment: flow cytometry, T2 cells loaded with SSX2 [..], 10 µg/ml
[26] = biological target: HLA-A2 on cells (tumor cell lines, normal primary cells, PBMCs) (human); experiment: flow cytometry, DG-75 cells, 10 µg/ml
[27] = biological target: HLA-A2/GP9 on T2 cells (human); experiment: flow cytometry, T2 cells loaded with GP9 peptide
[28] = biological target: HLA-A2/DUSP5 on T2 cells (human); experiment: flow cytometry, T2 cells loaded with DUSP5 peptide
[29] = biological target: HLA-A2/WT1-S13 on T2 cells (human); experiment: flow cytometry, peptide-loaded T2 cells (10^-4-10^-5 M)
[30] = biological target: HLA-A2/WT1-S11 on T2 cells (human); experiment: as above
[31] = biological target: HLA-A2/WT1-S10 on T2 cells (human); experiment: as above
[32] = biological target: HLA-A2/WT1-S7 on T2 cells (human); experiment: as above
[33] = biological target: HLA-A2/WT1-S16 on T2 cells (human); experiment: as above
[34] = biological target: HLA-A2/WT1-S6 on T2 cells (human); experiment: as above
[35] = biological target: HLA-A2/WT1-S22 on T2 cells (human); experiment: as above
[36] = biological target: HLA-A2/TyrD-S6 on T2 cells (human); experiment: flow cytometry, T2 cells loaded with TyrD S6 [..], 10 µg/ml
[37] = biological target: HLA-A2/WT1 126-134 complex on T2 cells (human); experiment: flow cytometry, T2 cells loaded with WT1 peptide
[38] = biological target: HLA-A2 on cells (tumor cell lines, normal primary cells, PBMCs) (human); experiment: flow cytometry, 501A melanoma cells, 10 µg/ml; remark: listed apart in the source
[39] = biological target: HLA-A2 on cells (tumor cell lines, normal primary cells, PBMCs) (human); experiment: flow cytometry, Malme-3M melanoma cells

**Q.** For BB7.2 (antibody), which MFI relative to background [1] is on record?
**A.** Its MFI relative to background is 444.

**Q.** And the MFI [2]?
**A.** The MFI was 174.

**Q.** What about the MFI [3] of the same substance?
**A.** The MFI was 540.

**Q.** What about the MFI relative to background [4] of the same substance?
**A.** Its MFI relative to background is 421.

**Q.** And the MFI [5]?
**A.** The MFI was 80.1.

**Q.** And the MFI [6]?
**A.** The MFI was 1620.

**Q.** And the MFI relative to background [7]?
**A.** The MFI relative to background was 565.

**Q.** And the MFI [8]?
**A.** Its MFI is 52.7.

**Q.** What about the MFI [9] of the same substance?
**A.** Its MFI is 722.

**Q.** And the MFI [10]?
**A.** Its MFI is 369.

**Q.** And the MFI [11]?
**A.** Its MFI is 727.

**Q.** What about the GeoMean [12] of the same substance?
**A.** Its GeoMean is 1290.

**Q.** And the MFI [13]?
**A.** The MFI was 760.

**Q.** What about the MFI [14] of the same substance?
**A.** Its MFI is 722.

**Q.** And the MFI relative to background [15]?
**A.** Its MFI relative to background is 445.

**Q.** And the MFI relative to background [16]?
**A.** Its MFI relative to background is 286.

**Q.** What about the MFI relative to background [17] of the same substance?
**A.** The MFI relative to background was 417.

**Q.** And the GeoMean [18]?
**A.** The GeoMean was 613.

**Q.** And the MFI relative to background [19]?
**A.** Its MFI relative to background is 965.

**Q.** And the MFI [20]?
**A.** Its MFI is 590.

**Q.** What about the MFI [21] of the same substance?
**A.** Its MFI is 64.

**Q.** What about the MFI [22] of the same substance?
**A.** The MFI was 1920.

**Q.** And the MFI [23]?
**A.** The MFI was 215.

**Q.** What about the MFI [24] of the same substance?
**A.** The MFI was 351.

**Q.** What about the MFI relative to background [25] of the same substance?
**A.** The MFI relative to background was 1280.

**Q.** What about the MFI [26] of the same substance?
**A.** The MFI was 700.

**Q.** And the MFI [27]?
**A.** The MFI was 2470.

**Q.** And the MFI [28]?
**A.** Its MFI is 2470.

**Q.** And the MFI [29]?
**A.** The MFI was 296.

**Q.** What about the MFI [30] of the same substance?
**A.** Its MFI is 449.

**Q.** And the MFI [31]?
**A.** Its MFI is 450.

**Q.** What about the MFI [32] of the same substance?
**A.** Its MFI is 592.

**Q.** And the MFI [33]?
**A.** Its MFI is 379.

**Q.** What about the MFI [34] of the same substance?
**A.** Its MFI is 500.

**Q.** And the MFI [35]?
**A.** The MFI was 376.

**Q.** And the MFI relative to background [36]?
**A.** Its MFI relative to background is 516.

**Q.** And the MFI [37]?
**A.** Its MFI is 2320.

**Q.** And the MFI [38]?
**A.** Its MFI is 243.

**Q.** What about the MFI [39] of the same substance?
**A.** Its MFI is 372.
